This note sets out measurements from patent publication US20180346564A1.

Changes are numbered by the printed parent chain. Names may count otherwise.

B1: Humanized × [MAPT_H] mAb (Ta1505-VL46_G34T/VH11) IgG4 S228P/Kappa (CX) (antibody, V domains shown)
VH: EVQLVESGGGLVQPGGSLRLSCAASGFTFSSFALNWVRQAPGKGLEWVGHIRSKTNNYATFYAASVKDRFTVSRDDSQNTAYLQMNSLKTEDTATYYCVRRGPRDSWFGYWGQGTLVTVSS
VL: DIVMTQSPLSLPVTLGEPASISCRSSQSIVHSNTNTYLEWYLQKPGQSPQLLIYTVSNRFSGVPDRFSGSGSGTDFTLKISRVEAEDLGVYYCFQGSHLPLTFGGGTKVEIKR
B2: Humanized × [MAPT_H] mAb (Ta1505-VL46_N33S/VH11) IgG4 S228P/Kappa (CX) (antibody, V domains shown)
VH: B1 VH
VL: B1 VL with N33S, T34G
B3: Humanized × [MAPT_H] mAb (Ta1505-VL46 S28N/VH11) IgG4 S228P/Kappa (CX) (antibody, V domains shown)
VH: B1 VH
VL: B1 VL with S28N, T34G
B4: Humanized × [MAPT_H] mAb (Ta1505-VL46_N33Q_G34A/VH11) IgG4 S228P/Kappa (CX) (antibody, V domains shown)
VH: B1 VH
VL: B1 VL with N33Q, T34A
B5: Humanized × [MAPT_H] mAb (Ta1505-VL46_N33Q/VH11) IgG4 S228P/Kappa (CX) (antibody, V domains shown)
VH: B1 VH
VL: B1 VL with N33Q, T34G
B6: Humanized × [MAPT_H] mAb (Ta1505-VL46_N33T/VH11) IgG4 S228P/Kappa (CX) (antibody, V domains shown)
VH: B1 VH
VL: B1 VL with N33T, T34G

The target in this assay is T1, phosphorylated peptide (PRHLSNVS(pS)TGSIDMVD) of Example 10 (human).
T1 sequence (peptide, phosphoserine (pS) at peptide position 9): PRHLSNVSSTGSIDMVD
Briefly: ELISA, pS413 peptide coated at 1 ug/ml, antibody titrated, goat anti-human-HRP, ABTS, OD405 (Example 10). In general terms: ELISA stands for enzyme-linked immunosorbent assay.
By EC50 (read off the curve) is commonly meant the concentration needed to bring the measured effect to its halfway point. For the molecule B1, the EC50 (read off the curve) is 0.01 µg/mL.
To B2 belongs 0.02 µg/mL; to B3, 0.006 µg/mL; to B4, 0.02 µg/mL.
To B5 belongs 0.02 µg/mL; to B6, 0.01 µg/mL.
